# US20240287172A1 (SCIRHOM, published 2024)
# Positions count from the first letter of the chain named.
# T1: hiR2-FL-G587N-T7 (human, UniProt Q6PJF5 1-856)
# T1 sequence: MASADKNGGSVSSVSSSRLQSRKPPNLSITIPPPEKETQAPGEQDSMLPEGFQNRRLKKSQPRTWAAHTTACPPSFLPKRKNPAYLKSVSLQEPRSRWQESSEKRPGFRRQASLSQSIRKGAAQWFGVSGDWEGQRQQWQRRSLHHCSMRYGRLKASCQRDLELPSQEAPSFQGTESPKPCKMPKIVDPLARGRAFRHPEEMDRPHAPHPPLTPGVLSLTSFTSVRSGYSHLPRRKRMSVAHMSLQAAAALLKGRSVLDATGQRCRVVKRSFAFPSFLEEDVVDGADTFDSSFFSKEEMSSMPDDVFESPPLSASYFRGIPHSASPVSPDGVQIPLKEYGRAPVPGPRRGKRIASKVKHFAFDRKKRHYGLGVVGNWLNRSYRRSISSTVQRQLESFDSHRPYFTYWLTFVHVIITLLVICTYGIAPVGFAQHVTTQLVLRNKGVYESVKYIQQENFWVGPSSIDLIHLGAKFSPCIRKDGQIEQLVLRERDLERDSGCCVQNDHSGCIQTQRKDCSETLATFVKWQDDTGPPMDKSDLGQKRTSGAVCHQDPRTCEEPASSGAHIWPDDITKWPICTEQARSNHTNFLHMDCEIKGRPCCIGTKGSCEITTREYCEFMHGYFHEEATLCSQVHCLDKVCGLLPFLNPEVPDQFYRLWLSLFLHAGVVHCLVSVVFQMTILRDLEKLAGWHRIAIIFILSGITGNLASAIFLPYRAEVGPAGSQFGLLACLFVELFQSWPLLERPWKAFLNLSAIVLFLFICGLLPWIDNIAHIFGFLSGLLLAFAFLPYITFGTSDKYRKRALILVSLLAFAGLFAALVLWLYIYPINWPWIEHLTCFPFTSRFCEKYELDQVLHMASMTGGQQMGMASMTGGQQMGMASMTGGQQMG
# B1: antibody 43 (antibody, V domains shown)
# VH: QVALKESGPGILQPSQTLSLTCSFSGFSLSTFGMGVGWIRQSSGKGLEWLANIWWDDDKYYNPALKSRLTISKDASKNQAFLKIANVDTADTATYYCARIGNYGSNYWYFDVWGTGTTVTVSS
# VL: QIVLTQSPAIMSASPGERVTMTCSANSRISYMYWYQQKPGSSPRLLIYDTSNLASGVPVRFSGSGSGTSYSLTISRMEAEDAATYNCQQWSSYPLTFGAGTKLELK
# notes: mouse IgG, kappa light chain; also called clone #43; purified antibody 43
# B2: antibody 48 (antibody, V domains shown)
# VH: QVQLQQSGTELVRPGTSVKVSCKASGYAFTNYLIEWVKQRPGQGLEWIGVINPGSGFTKYNEKFKGKATLTADKSSSTVYMHLSSLTSEDSAVYFCARGLYRAMDYWGQGTSVTVSS
# VL: DIQMTQSPASQSASLGESVTITCLASQTIATWLAWYQQKPGKSPQLLIYGATTLADGVPSRFSGGGSGTKFSFKISSLQAEDFVSYYCQQLYSTPYTFGGGTKLEIK
# notes: mouse IgG, kappa light chain; also called clone #48; purified antibody 48
# B3: antibody 50 (antibody, V domains shown)
# VH: B2 VH with T9A, T16A, T30S, V79A, H82Q
# VL: B2 VL with A30G, G50A, T52A, T53S, S85N, L91I
# notes: mouse IgG, kappa light chain; also called clone #50; purified antibody 50
# Biological target: T1, hiR2-FL-G587N-T7
# Assay: FACS, MEF-DKO cells, 3 µg/ml
# Source text: In brief, immortalized MEF-DKO hiR2-FL-G563D-T7, MEF-DKO hiR2-FL-A564P-T7, MEF-DKO hiR2-FL-1566E-T7, MEF-DKO hiR2-FL-D569E-T7, MEF-DKO hiR2-FL-E579K-T7, MEF-DKO hiR2-FL-Q580N-T7, MEF-DKO hiR2-FL-A581S-T7, MEF-DKO hiR2-FL-R582A-T7, MEF-DKO hiR2-FL-S583G-T7, MEF-DKO hiR2-FL-G587N-T7, MEF-DKO hiR2-FL-F588H-T7, MEF-DKO hiR2-FL-L589P-T7, MEF-DKO hiR2-FL-E594V-T7, MEF-DKO hiR2-FL-K596T-T7, MEF-DKO hiR2-FL-S607R-T7, MEF-DKO hiR2-FL-T612S-T7, MEF-DKO hiR2-FL-E617D-T7, MEF-DKO hiR2-FL-H620R-T7, MEF-DKO hiR2-FL-L636M-T7, MEF-DKO hiR2-FL-K638D-T7, MEF-DKO hiR2-FL-1771F-T7, MEF-DKO hiR2-FL-1825V-T7, MEF-DKO hiR2-FL-1828V-T7, MEF-DKO hiR2-FL-N829R-T7, MEF-DKO hiR2-FL-W830C-T7, MEF-DKO hiR2-FL-P831E-T7, MEF-DKO hiR2-FL-I833C-T7, MEF-DKO hiR2-FL-H835F-T7, MEF-DKO hiR2-FL-F8391-T7, MEF-DKO hiR2-FL-S843D-T7, MEF-DKO hiR2-FL-Q853A-T7, MEF-DKO hiR2-FL-V854Q-T7 and MEF-DKO hiR2-FL-R844K-T7 cells were harvested with 10 mM EDTA in PBS, washed and resuspended in FACS buffer (PBS, 3% FBS, 0.05% sodium azide), and seeded in Nunc U-bottom 96-well plates (Thermo Fisher Scientific, USA) at approximately 1×10⁵ cells per well. To pellet cells and remove supernatants, the plates were centrifuged at 1,500 rpm and 4° C. for 3 minutes. For primary staining, cells were resuspended in 100 μl per well of either FACS buffer alone (controls) or the purified antibodies 3, 5, 16, 22, 34, 42, 43, 44, 48, and 50 of the invention at 3 μg/ml in FACS buffer and incubated on ice for 1 hour. Afterwards, plates were centrifuged at 1,500 rpm and 4° C. for 3 minutes and washed twice with 200 μl per well of FACS buffer. For secondary staining, cells were spun down and resuspended in 100 μl per well of PE-conjugated goat anti-mouse IgG F(ab′)2 detection fragment (Dianova, Germany) diluted 1:100 in FACS buffer. Protected from light, the cell suspensions were incubated on ice for 1 hour. Plates were then centrifuged at 1,500 rpm and 4° C. for 3 minutes and washed three times with 200 μl per well of FACS buffer. Finally, cells were resuspended in 150 μl per well of FACS buffer and analyzed using a BD Accuri™ C6 Plus flow cytometer (Becton Dickinson, Germany).
row,Binder,loss of binding vs wild type [%]
1,B1,≥ 30
2,B2,≥ 60
3,B3,≥ 60
